Among the data in PMC3406685 are adhesion relative to that on II-27 and increase of adhesion on substitution of Mg2+ with Mn2+ values, retold here.

Assay in all cases: real-time label-free cell adhesion
Test [1] has as its target triple-helical peptide II-27-A (GVOGEA within (GPP)5 hosts).
For test [2], the target named is Collagen Toolkit II peptide II-27.
Test [3] addresses Collagen Toolkit III peptide III-7.

For “integrin α1β1 on rat pheochromocytoma PC12 cells (from UniProt P18614 29-1180; P49134 21-799) (receptor)”, the adhesion relative to that on II-27 in test [1] is 40%. Also, the values for the increase of adhesion on substitution of Mg2+ with Mn2+ in test [1], in test [2] and in test [3] were 13%, 65% and 26%, respectively.
